# Measured values: publication PMC9029106
# Biological target: SKP2 (UniProt Q13309)
# Experiment: co-IP, blot for Myc and p27
# Conditions: reference: wild-type p27; sites T187
substance,measurement,value
p27 (Kip1) (from UniProt P46527) p27 T187A,binding against the reference,lost
